Measured values as given in the Immune Epitope Database (IEDB).

Assays:
HLA-A*30:02 = assay: IEDB peptide-MHC binding, purified MHC/competitive/radioactivity; filed as Kd, often an IC50 or EC50 that approximates it; ≥ and ≤ were set here for values at or beyond the usual limits of such assays
HLA-B*44:02 = assay: as above
HLA-B*08:01 = assay: as above
HLA-B*07:02 = assay: as above
HLA-B*15:01 = assay: as above
HLA-A*30:01 = assay: as above
HLA-A*26:01 [1] = assay: as above
HLA-A*01:01 = assay: as above
HLA-B*44:03 = assay: as above
HLA-A*24:02 [2] = assay: IEDB peptide-MHC binding, purified MHC/competitive/fluorescence; ≥ and ≤ were set here for values at or beyond the usual limits of such assays
HLA-A*26:01 [3] = assay: IEDB peptide-MHC binding, purified MHC/direct/fluorescence; filed as Kd, often an IC50 or EC50 that approximates it; ≥ and ≤ were set here for values at or beyond the usual limits of such assays; conditions: source organism: Mycobacterium tuberculosis variant bovis
HLA-B*39:01 = assay: IEDB peptide-MHC binding, purified MHC/competitive/fluorescence; filed as Kd, often an IC50 or EC50 that approximates it; ≥ and ≤ were set here for values at or beyond the usual limits of such assays; conditions: source organism: Bacillus anthracis str. A2012
HLA-A*02:01 = assay: IEDB peptide-MHC binding, purified MHC/competitive/fluorescence; ≥ and ≤ were set here for values at or beyond the usual limits of such assays
HLA-A*11:01 = assay: IEDB peptide-MHC binding, purified MHC/competitive/radioactivity; filed as Kd, often an IC50 or EC50 that approximates it; ≥ and ≤ were set here for values at or beyond the usual limits of such assays; conditions: source organism: Dengue virus 1 Brazil/97-11/1997
HLA-A*24:02 [4] = assay: as above; conditions: source organism: Dengue virus 2 Jamaica/1409/1983
HLA-B*57:01 = assay: IEDB peptide-MHC binding, purified MHC/direct/fluorescence; filed as Kd, often an IC50 or EC50 that approximates it; ≥ and ≤ were set here for values at or beyond the usual limits of such assays; conditions: source organism: Bacillus cereus
HLA-B*58:01 = assay: as above; conditions: source organism: Bacillus cereus
HLA-B*46:01 = assay: as above; conditions: source organism: West Nile virus
[5] = source organism: Dengue virus 1 Brazil/97-11/1997
[6] = source organism: Dengue virus 3 Martinique/1243/1999
[7] = source organism: Dengue virus 4 Philippines/H241/1956
[8] = source organism: Vaccinia virus WR
[9] = source organism: Dengue virus 2 Jamaica/1409/1983
[10] = source organism: Zaire ebolavirus
[11] = source organism: Vaccinia virus Copenhagen
[12] = source organism: Dengue virus 4 Dominica/814669/1981

Question: For AGGMLIACY, which Kd (HLA-A*30:02; [5]) is on record?
Answer: 0.46 µM

Question: For AICSAVPVHW, which Kd (HLA-B*44:02; [6]) is on record?
Answer: 2.4 µM

Question: For AIKRKLRTL, which Kd (HLA-B*08:01; [5]) is on record?
Answer: 17.3 nM

Question: Which Kd (HLA-B*07:02; [7]) does the source give for APHHKILAKA here?
Answer: 0.407 µM

Question: For AQKRTAAGIM, which Kd (HLA-B*15:01; [5]) is on record?
Answer: 0.0256 µM

Question: ATKNGNIFV was tested. Which Kd (HLA-A*30:01; [8]) did it give?
Answer: 0.00385 µM

Question: Which results are given for CIAVGMVTLY?
Answer: Kd (HLA-A*26:01 [1]; [5]): 0.483 µM; Kd (HLA-A*01:01; [5]): 1.38 µM

Question: Which Kd (HLA-B*08:01; [8]) does the source give for CPRKRKTVE here?
Answer: 581 nM

Question: With DENPYKTWAY as the sequence, how does the Kd (HLA-B*44:03; [6]) read?
Answer: 0.00864 µM

Question: Which Kd (HLA-B*08:01; [8]) does the source give for ELDLHFQRI here?
Answer: 3260 nM

Question: How did the Kd (HLA-A*26:01 [1]; [7]) turn out when EMADITGSSP was run?
Answer: ≥ 46.7 µM

Question: Which Kd (HLA-A*26:01 [1]; [5]) does the source give for EMAEALKGM here?
Answer: 8.32 µM

Question: For ERPVILSLP, which IC50 (HLA-A*24:02 [2]; source organism: Variola virus) is on record?
Answer: 18.4 µM

Question: With ETKQTGSASS as the sequence, how does the Kd (HLA-A*26:01 [1]; [9]) read?
Answer: ≥ 25 µM

Question: For ETPNMDVIGE, which Kd (HLA-A*26:01 [1]; [6]) is on record?
Answer: 1.1 µM

Question: FCIKILNPY was tested. Which Kd (HLA-A*26:01 [1]; [5]) did it give?
Answer: 7.7 µM

Question: With FGVDGEAGF as the sequence, how does the Kd (HLA-A*26:01 [3]) read?
Answer: ≥ 20 µM

Question: For FHMSKPSDL, which Kd (HLA-B*39:01) is on record?
Answer: 0.0077 µM

Question: FIYLLFASM was tested. Which Kd (HLA-B*08:01; [8]) did it give?
Answer: 1680 nM

Question: What about the Kd (HLA-B*15:01; [8]) of the same sequence?
Answer: 0.999 µM

Question: FLKHKYGSL was tested. Which Kd (HLA-B*08:01; [8]) did it give?
Answer: 0.135 nM

Question: For FRFEVKKRD, which IC50 (HLA-A*02:01; [10]) is on record?
Answer: ≥ 733 µM

Question: What about the IC50 (HLA-A*24:02 [2]; [10]) of the same sequence?
Answer: 19.5 µM

Question: FTEENQWDSA was tested. Which Kd (HLA-A*01:01; [6]) did it give?
Answer: 0.197 µM

Question: FTNMEVQLI was tested. Which Kd (HLA-A*01:01; [5]) did it give?
Answer: 5.85 µM

Question: For FYRKKFRPL, which Kd (HLA-B*08:01; [8]) is on record?
Answer: 0.0879 nM

Question: For GCGRGGWSY, which Kd (HLA-A*30:02; [6]) is on record?
Answer: 0.439 µM

Question: How did the Kd (HLA-A*30:01; [5]) turn out when GSLLTCAKFK was run?
Answer: 0.433 µM

Question: And the Kd (HLA-A*11:01)?
Answer: 0.0968 µM

Question: How did the Kd (HLA-A*30:01; source organism: Dengue virus 1 Nauru/West Pac/1974) turn out when GTTATITPQA was run?
Answer: 0.839 µM

Question: Which Kd (HLA-A*26:01 [1]; [5]) does the source give for HTIENTTAN here?
Answer: 2.29 µM

Question: Which Kd (HLA-A*30:01; [8]) does the source give for HVLMHSPLV here?
Answer: 0.0299 µM

Question: What does the source list for IEEVMRSRW?
Answer: Kd (HLA-B*44:03; [5]): 0.0366 µM; Kd (HLA-B*44:02; [5]): 0.178 µM

Question: How did the Kd (HLA-B*44:03; [5]) turn out when IESEKNETW was run?
Answer: 0.279 µM

Question: And the Kd (HLA-B*44:02; [5])?
Answer: 0.087 µM

Question: How did the Kd (HLA-B*08:01; [7]) turn out when IIGRRLQRL was run?
Answer: 128 nM

Question: With IQNSGGTSIF as the sequence, how does the Kd (HLA-B*15:01; [6]) read?
Answer: 0.00301 µM

Question: For IQTSGTTTIF, which Kd (HLA-B*15:01; [5]) is on record?
Answer: 0.0053 µM

Question: Which IC50 (HLA-A*02:01; [10]) does the source give for IRSEELSFT here?
Answer: ≥ 2410 µM

Question: For IRWLGGILP, which IC50 (HLA-A*02:01; [8]) is on record?
Answer: ≥ 156 µM

Question: And the IC50 (HLA-A*24:02 [2]; [8])?
Answer: 48.1 µM

Question: KCIEYVTLN was tested. Which IC50 (HLA-A*02:01; [11]) did it give?
Answer: ≥ 125 µM

Question: How did the IC50 (HLA-A*02:01; [10]) turn out when KFLLIHQGM was run?
Answer: ≥ 150 µM

Question: What about the IC50 (HLA-A*24:02 [2]; [10]) of the same sequence?
Answer: 0.256 µM

Question: Which results are given for KPKGKVVDL?
Answer: Kd (HLA-B*07:02; [7]): 0.0434 µM; Kd (HLA-B*08:01; [7]): 124 nM

Question: KQFKQDSKY was tested. Which Kd (HLA-B*15:01; source organism: Lymphocytic choriomeningitis virus (strain Armstrong) (clone 53b)) did it give?
Answer: 0.013 µM

Question: For KTNTGTIGA, which Kd (HLA-A*30:01; [9]) is on record?
Answer: 0.00294 µM

Question: KVKFYKREL was tested. Which Kd (HLA-A*30:01; [8]) did it give?
Answer: 0.0419 µM

Question: Which Kd (HLA-A*30:01; [8]) does the source give for KVLDGSPIS here?
Answer: 0.43 µM

Question: Which Kd (HLA-A*30:01; [8]) does the source give for KVSSKHQLV here?
Answer: 0.014 µM

Question: How did the Kd (HLA-B*08:01; source organism: Dengue virus 3 Singapore/8120/1995) turn out when LAKRFSRGLL was run?
Answer: 1480 nM

Question: Which results are given for LALITVSGLY?
Answer: Kd (HLA-A*30:02; [7]): 0.00526 µM; Kd (HLA-A*01:01; [7]): 12.7 µM

Question: How did the Kd (HLA-B*07:02; [9]) turn out when LARVGRERL was run?
Answer: 0.298 µM

Question: With LENVMWKQI as the sequence, how does the Kd (HLA-B*44:03; [12]) read?
Answer: 0.157 µM

Question: What about the Kd (HLA-B*44:02; [12]) of the same sequence?
Answer: 0.105 µM

Question: What does the source list for LESGAVKYL?
Answer: IC50 (HLA-A*02:01; [10]): ≥ 222 µM; IC50 (HLA-A*24:02 [2]; [10]): ≥ 128 µM

Question: With LFLRRRCPL as the sequence, how does the Kd (HLA-B*08:01; [11]) read?
Answer: 0.125 nM

Question: Which Kd (HLA-A*24:02 [4]) does the source give for LFMALVAFL here?
Answer: 8.2 µM

Question: How did the Kd (HLA-B*15:01; [6]) turn out when LGKCGSCVY was run?
Answer: 0.11 µM

Question: Which results are given for LGTIYGFIW?
Answer: Kd (HLA-B*57:01): 0.521 µM; Kd (HLA-B*58:01): 0.0063 µM

Question: How did the Kd (HLA-B*08:01; [8]) turn out when LLKMPFRMV was run?
Answer: 7.12 nM

Question: How did the Kd (HLA-B*15:01; [8]) turn out when LLSRYDEHF was run?
Answer: 0.054 µM

Question: With LLVAPAYSF as the sequence, how does the Kd (HLA-B*46:01) read?
Answer: ≥ 20 µM

Question: How did the Kd (HLA-B*15:01; [8]) turn out when LMCPDECPG was run?
Answer: 0.899 µM
